According to patent publication US20220088145A1:

How the values were obtained:
[1] = target: HLA-DR15 dimer (DR1501) (human); assay: peptide binding to HLA-DR dimer; EC50 ratio (<20 = high affinity, 20-100 = moderate affinity); method not described
[2] = target: HLA-DR7 dimer (DR0701) (human); assay: as above

Substance	EC50 Ratio [1]	EC50 Ratio [2]
E. rectale Fla1 p445-464 (peptide)	4.5	
R. Intest. Fla1 p408-427 (peptide)	4.1	5
